# B1: GFP–WDR34-WT [human] / DYNLL2 [human (endogenous in RPE1)] (parent)
# chain 1: MATRAQPGPLSQAGSAGVAALATVGVASGPGPGRPGPLQDETLGVASVPSQWRAVQGIRWETKSCQTASIATASASAQARNHVDAQVQTEAPVPVSVQPPSQYDIPRLAAFLRRVEAMVIRELNKNWQSHAFDGFEVNWTEQQQMVSCLYTLGYPPAQAQGLHVTSISWNSTGSVVACAYGRLDHGDWSTLKSFVCAWNLDRRDLRPQQPSAVVEVPSAVLCLAFHPTQPSHVAGGLYSGEVLVWDLSRLEDPLLWRTGLTDDTHTDPVSQVVWLPEPGHSHRFQVLSVATDGKVLLWQGIGVGQLQLTEGFALVMQQLPRSTKLKKHPRGETEVGATAVAFSSFDPRLFILGTEGGFPLKCSLAAGEAALTRMPSSVPLRAPAQFTFSPHGGPIYSVSCSPFHRNLFLSAGTDGHVHLYSMLQAPPLTSLQLSLKYLFAVRWSPVRPLVFAAASGKGDVQLFDLQKSSQKPTVLIKQTQDESPVYCLEFNSQQTQLLAAGDAQGTVKVWQLSTEFTEQGPREAEDLDCLAAEVAA
# chain 2: not shown
# B2: GFP–WDR34-WT [human] / LIC3 [human (endogenous in RPE1)] (parent)
# chain 1: B1 chain 1
# chain 2: MPSETLWEIAKAEVEKRGINGSEGDGAEIAEKFVFFIGSKNGGKTTIILRCLDRDEPPKPTLALEYTYGRRAKGHNTPKDIAHFWELGGGTSLLDLISIPITGDTLRTFSLVLVLDLSKPNDLWPTMENLLQATKSHVDKVIMKLGKTNAKAVSEMRQKIWNNMPKDHPDHELIDPFPVPLVIIGSKYDVFQDFESEKRKVICKTLRFVAHYYGASLMFTSKSEALLLKIRGVINQLAFGIDKSKSICVDQNKPLFITAGLDSFGQIGSPPVPENDIGKLHAHSPMELWKKVYEKLFPPKSINTLKDIKDPARDPQYAENEVDEMRIQKDLELEQYKRSSSKSWKQIELDS
# B3: GFP–WDR34-WT [human] / WDR60 [human (endogenous in RPE1)] (parent)
# chain 1: B1 chain 1
# chain 2: MEPGKRRTKDDTWKADDLRKHLWAIQSGGSKEERKHREKKLRKESEMDLPEHKEPRCRDPDQDARSRDRVAEVHTAKESPRGERDRDRQRERRRDAKDREKEKLKEKHREAEKSHSRGKDREKEKDRRARKEELRQTVAHHNLLGQETRDRQLLERAERKGRSVSKVRSEEKDEDSERGDEDRERRYRERKLQYGDSKDNPLKYWLYKEEGERRHRKPREPDRDNKHREKSSTREKREKYSKEKSNSFSDKGEERHKEKRHKEGFHFDDERHQSNVDRKEKSAKDEPRKRESQNGEHRNRGASSKRDGTSSQHAENLVRNHGKDKDSRRKHGHEEGSSVWWKLDQRPGGEETVEIEKEETDLENARADAYTASCEDDFEDYEDDFEVCDGDDDESSNEPESREKLEELPLAQKKEIQEIQRAINAENERIGELSLKLFQKRGRTEFEKEPRTDTNSSPSRASVCGIFVDFASASHRQKSRTQALKQKMRSTKLLRLIDLDFSFTFSLLDLPPVNEYDMYIRNFGKKNTKQAYVQCNEDNVERDIQTEEIETREVWTQHPGESTVVSGGSEQRDTSDAVVMPKIDTPRLCSFLRAACQVMAVLLEEDRLAAEPSWNLRAQDRALYFSDSSSQLNTSLPFLQNRKVSSLHTSRVQRQMVVSVHDLPEKSFVPLLDSKYVLCVWDIWQPSGPQKVLICESQVTCCCLSPLKAFLLFAGTAHGSVVVWDLREDSRLHYSVTLSDGFWTFRTATFSTDGILTSVNHRSPLQAVEPISTSVHKKQSFVLSPFSTQEEMSGLSFHIASLDESGVLNVWVVVELPKADIAGSISDLGLMPGGRVKLVHSALIQLGDSLSHKGNEFWGTTQTLNVKFLPSDPNHFIIGTDMGLISHGTRQDLRVAPKLFKPQQHGIRPVKVNVIDFSPFGEPIFLAGCSDGSIRLHQLSSAFPLLQWDSSTDSHAVTGLQWSPTRPAVFLVQDDTSNIYIWDLLQSDLGPVAKQQVSPNRLVAMAAVGEPEKAGGSFLALVLARASGSIDIQHLKRRWAAPEVDECNRLRLLLQEALWPEGKLHK
# Variants of: B1
# Assay: GFP-trap purification, TMT-labelling and mass spectrometry
# Settings: with DYNLL2 [human (endogenous in RPE1)]; RPE1 WDR34 KO cell lines expressing GFP proteins, serum-starved for 24 h; read off a plot
row,ratio to parent,Variant
1,1.5,chain 1 T354M

# Variants of: B2
# Assay: as above
# Settings: with LIC3 [human (endogenous in RPE1)]; RPE1 WDR34 KO cell lines expressing GFP proteins, serum-starved for 24 h; read off a plot
row,ratio to parent,Variant
1,2.2,chain 1 MATRAQPGPLSQAGSAGVAALATVGVASGPGPGRPGPLQDETLGVASVPSQWRAVQGIRWETKSCQTASIATASASAQARNHVDAQVQTEAPVPVSVQPPSQYDIPRLAAFLRRVEAMVIRELNKNWQSHAFDGFEVNWTEQQQMVSCLYTLGYPPAQAQGLHVTSISWNSTGSVVACAYGRLDHGDWSTLKSFVCAWNLDRRDLRPQQPSAVVEVPSAVLCLAFHPTQPSHVAGGLYSGEVLVWDLSRLEDPLLWRTGLTDDTHTDPVSQVVWLPEPGHSHRFQVLSVATDGKVLLWQGIGVGQLQLTEGFALVMQQLPRSTKLKKHPRGETEVGATAVVFSSFDPRLFILGTEGGFPLKCSLAAGEAALTRMPSSVPLRAPAQFTFSPHGGPIYSVSCSPFHRNLFLSAGTDGHVHLYSMLQAPPLTSLQLSLKYLFAVRWSPVRPLVFAAASGKGDVQLFDLQKSSQKPTVLIKQTQDESPVYCLEFNSQQTQLLAAGDAQGTVKVWQLSTEFTEQGPREAEDLDCLAAEVAA [chain 1 A341V]

# Variants of: B3
# Assay: as above
# Settings: with WDR60 [human (endogenous in RPE1)]; RPE1 WDR34 KO cell lines expressing GFP proteins, serum-starved for 24 h; read off a plot
row,ratio to parent,Variant
1,1.5,chain 1 MATRAQPGPLSQAGSAGVAALATVGVASGPGPGRPGPLQDETLGVASVPSQWRAVQGIRWETKSCQTASIATASASAQARNHVDAQVQTEAPVPVSVQPPSQYDIPRLAAFLRRVEAMVIRELNKNWQSHAFDGFEVNWTEQQQMVSCLYTLGYPPAQAQGLHVTSISWNSTGSVVACAYGRLDHGDWSTLKSFVCAWNLDRRDLCPQQPSAVVEVPSAVLCLAFHPTQPSHVAGGLYSGEVLVWDLSRLEDPLLWRTGLTDDTHTDPVSQVVWLPEPGHSHRFQVLSVATDGKVLLWQGIGVGQLQLTEGFALVMQQLPRSTKLKKHPRGETEVGATAVAFSSFDPRLFILGTEGGFPLKCSLAAGEAALTRMPSSVPLRAPAQFTFSPHGGPIYSVSCSPFHRNLFLSAGTDGHVHLYSMLQAPPLTSLQLSLKYLFAVRWSPVRPLVFAAASGKGDVQLFDLQKSSQKPTVLIKQTQDESPVYCLEFNSQQTQLLAAGDAQGTVKVWQLSTEFTEQGPREAEDLDCLAAEVAA [chain 1 R206C]
2,1.3,chain 1 MATRAQPGPLSQAGSAGVAALATVGVASGPGPGRPGPLQDETLGVASVPSQWRAVQGIRWETKSCQTASIATASASAQARNHVDAQVQTEAPVPVSVQPPSQYDIPRLAAFLRRVEAMVIRELNKNWQSHAFDGFEVNWTEQQQMVSCLYTLGYPPAQAQGLHVTSISWNSTGSVVACAYGRLDHGDWSTLKSFVCAWNLDRRDLRPQQPSAVVEVPSAVLCLAFHPTQPSHVAGGLYSGEVLVWDLSRLEDPLLWRTGLTDDTHTDPVSQVVWLPEPGHSHRFQVLSVATDGKVLLWQGIGVGQLQLTEGFALVMQQLPRSTKLKKHPRGETEVGATAVVFSSFDPRLFILGTEGGFPLKCSLAAGEAALTRMPSSVPLRAPAQFTFSPHGGPIYSVSCSPFHRNLFLSAGTDGHVHLYSMLQAPPLTSLQLSLKYLFAVRWSPVRPLVFAAASGKGDVQLFDLQKSSQKPTVLIKQTQDESPVYCLEFNSQQTQLLAAGDAQGTVKVWQLSTEFTEQGPREAEDLDCLAAEVAA [chain 1 A341V]
3,1.7,chain 1 MATRAQPGPLSQAGSAGVAALATVGVASGPGPGRPGPLQDETLGVASVPSQWRAVQGIRWETKSCQTASIATASASAQARNHVDAQVQTEAPVPVSVQPPSQYDIPRLAAFLRRVEAMVIRELNKNWQSHAFDGFEVNWTEQQQMVSCLYTLGYPPAQAQGLHVTSISWNSTGSVVACAYGWLDHGDWSTLKSFVCAWNLDRRDLRPQQPSAVVEVPSAVLCLAFHPTQPSHVAGGLYSGEVLVWDLSRLEDPLLWRTGLTDDTHTDPVSQVVWLPEPGHSHRFQVLSVATDGKVLLWQGIGVGQLQLTEGFALVMQQLPRSTKLKKHPRGETEVGATAVAFSSFDPRLFILGTEGGFPLKCSLAAGEAALTRMPSSVPLRAPAQFTFSPHGGPIYSVSCSPFHRNLFLSAGTDGHVHLYSMLQAPPLTSLQLSLKYLFAVRWSPVRPLVFAAASGKGDVQLFDLQKSSQKPTVLIKQTQDESPVYCLEFNSQQTQLLAAGDAQGTVKVWQLSTEFTEQGPREAEDLDCLAAEVAA [chain 1 R182W]
4,1.4,chain 1 MATRAQPGPLSQAGSAGVAALATVGVASGPGPGRPGPLQDETLGVASVPSQWRAVQGIRWETKSCQTASIATASASAQARNHVDAQVQTEAPVPVSVQPPSQYDIPRLAAFLRRVEAMVIRELNKNWQSHAFDGFEVNWTEQQQMVSCLYTLGYPPAQAQGLHVTSISWNSTGSVVACAYGRLDHGDWSTLKSFVCAWNLDRRDLRPQQPSAVVEVPSAVLCLAFHPTQPSHVAGGLYSGEVLVWDLSRLEDPLLWRTGLTDDTHTDPVSQVVWLPEPGHSHRFQVLSVATDGKVLLWQGIGVGQLQLTEGFALVMQQLPRSTKLKKHPRGETEVGATAVAFSSFDPRLFILGTEGGFPLKCSLAAGEAALTRMPSSVPLRAPAQFTFSPHGGPIYSVSCSPFHRNLFLSAGTDGHVHLYSMLQAPPLTSLQLSLRYLFAVRWSPVRPLVFAAASGKGDVQLFDLQKSSQKPTVLIKQTQDESPVYCLEFNSQQTQLLAAGDAQGTVKVWQLSTEFTEQGPREAEDLDCLAAEVAA [chain 1 K436R]

# — PMC9687537
